Measured values published in PMC7218058.
Each block holds one substance with its values, some of them ahead of it.

Assays:
[1] = target: human FcγRIIIa 158Val, biotinylated; assay: SPR; settings: read off a plot
[2] = target: human FcγRIIIa 158Phe, biotinylated (UniProt P08637); assay: SPR; settings: read off a plot
anti-kappa nanobody = assay: cSPR (cellular SPR, opsonized RBCs); settings: density of 1 nM and opsonization concentration of 0.625 μg/ml; parent: est. 610; read off a plot
[3] = target: human FcγRIIa 131His, biotinylated (UniProt P12318); assay: cSPR (cellular SPR, opsonized RBCs); settings: receptor density of 30 nM and opsonization concentration of 2.5 μg/ml; parent: est. 310; read off a plot
human FcγRIIa 131His, biotinylated, sequence (P12318 34-217): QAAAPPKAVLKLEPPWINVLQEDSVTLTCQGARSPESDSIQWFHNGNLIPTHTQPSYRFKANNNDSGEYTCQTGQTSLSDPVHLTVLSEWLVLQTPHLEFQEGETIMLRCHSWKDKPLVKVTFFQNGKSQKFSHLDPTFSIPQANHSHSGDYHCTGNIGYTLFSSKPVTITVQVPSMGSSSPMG

[4] = target: human FcγRIIIa 158Val, biotinylated; assay: cSPR (cellular SPR, opsonized RBCs); settings: receptor density of 10 nM and opsonization concentration of 1.25 μg/ml; parent: est. 200; read off a plot
[5] = target: human FcγRIIIa 158Phe, biotinylated (UniProt P08637); assay: cSPR (cellular SPR, opsonized RBCs); settings: receptor density of 30 nM and opsonization concentration of 0.625 μg/ml; parent: est. 250; read off a plot
[6] = target: human FcγRIIa 131Arg, biotinylated; assay: cSPR (cellular SPR, opsonized RBCs); settings: receptor density of 30 nM and opsonization concentration of 0.625 μg/ml; parent: est. 210; read off a plot
[7] = target: human FcγRIIIa 158Val, biotinylated (human); assay: SPR; IBIS MX96; biotinylated human FcγR spotted on a SensEye G-Streptavidin sensor at 1, 3, 10 and 30 nM; 2-fold dilution series of IgG (0.49 to 1000 nM) flowed over; Kd by equilibrium fitting, interpolated to Rmax 500
[8] = target: human FcγRIIIa 158Phe, biotinylated (UniProt P08637); assay: as above

human FcγRIIIa 158Phe, biotinylated, sequence (P08637 17-208): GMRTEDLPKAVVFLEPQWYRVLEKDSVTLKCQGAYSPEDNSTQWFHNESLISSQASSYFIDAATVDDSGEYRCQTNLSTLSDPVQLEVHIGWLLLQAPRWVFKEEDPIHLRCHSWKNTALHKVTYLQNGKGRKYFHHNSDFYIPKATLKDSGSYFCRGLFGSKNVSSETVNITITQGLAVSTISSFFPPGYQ

Substance: anti-RhD IgG3 allotype IGHG3*12 F296Y; P291L
- Kd ([1]; parent: est. 2.5e-7): 210 nM
- other: avidity (AUC) (anti-kappa nanobody): 640
- other: avidity (AUC) [3]: 45
- other: avidity (AUC) [4]: 55
- other: avidity (AUC) [5]: 50
- other: avidity (AUC) [6]: 11

Substance: anti-RhD IgG3 allotype IGHG3*17 R292E
- Kd ([1]; parent: est. 2.1e-7): 580 nM
- Kd ([2]; parent: est. 9.2e-7): 2700 nM

Substance: anti-RhD IgG3 allotype IGHG3*17 R292H
- Kd ([1]; parent: est. 2.1e-7): 200 nM
- Kd ([2]; parent: est. 9.2e-7): 810 nM

Substance: anti-RhD IgG3 allotype IGHG3*17 R292W
- Kd ([1]; parent: est. 2.1e-7): 540 nM
- Kd ([2]; parent: est. 9.2e-7): 2800 nM

Substance: anti-RhD IgG3 allotype IGHG3*18 (antibody)
- fold reduction of affinity against other IgG3 allotypes [7]: 3 fold
- fold reduction of affinity against other IgG3 allotypes [8]: 3 fold

Substance: anti-RhD IgG3 allotype IGHG3*19 (antibody)
- fold reduction of affinity against other IgG3 allotypes [7]: 3 fold
- fold reduction of affinity against other IgG3 allotypes [8]: 3 fold

Further lines, results first:

- Kd ([1]; parent: est. 2.7e-7): 470 nM
- Kd ([2]; parent: est. 1.5e-6): 4400 nM
Substance: anti-RhD IgG1 allotype IGHG1*03 R292W

- Kd ([1]; parent: est. 1.7e-7): 340 nM
- Kd ([2]; parent: est. 8.1e-7): 1900 nM
Substance: anti-RhD IgG3 allotype IGHG3*01 R292W

- Kd ([1]; parent: est. 2.1e-7): 220 nM
- Kd ([2]; parent: est. 9.2e-7): 860 nM
Substance: anti-RhD IgG3 allotype IGHG3*17 R292A

- Kd ([1]; parent: est. 2.1e-7): 210 nM
- Kd ([2]; parent: est. 9.2e-7): 860 nM
Substance: anti-RhD IgG3 allotype IGHG3*17 R292L

- Kd ([1]; parent: est. 5.4e-7): 210 nM
- Kd ([2]; parent: est. 2.6e-6): 880 nM
Substance: anti-RhD IgG3 allotype IGHG3*18 W292R
